Test results: patent US20240002531A1 (ONO PHARMACEUTICAL, published 2024)
Like-named read-outs stand apart in the source and are kept apart here.

What was measured:
[1] = molecular target: T1, HER2 peptide p614-621 (human); experiment: SPR Biacore, mAb on chip, peptide analyte, equilibrium analysis
T1 peptide: WKFPDEEG

[2] = molecular target: T2, HER2 peptide p613-622 (human); experiment: as above
T2 peptide: IWKFPDEEGA

[3] = molecular target: T3, HER2-K615A expressed on CHO-K1 cells (human, UniProt P04626 23-1255); experiment: flow cytometry on CHO-K1 cells expressing HER2-K615A
T3 construct: also called K615A point mutant; not shown: PA tag at the N terminus; RAP tag and MAP tag at the C terminus

[4] = molecular target: T1, HER2 peptide p614-621; experiment: SPR Biacore, mAb on chip, peptide analyte, equilibrium analysis
[5] = molecular target: T4, HER2 peptide p614-620 (human); experiment: as above
T4 peptide: WKFPDEE

[6] = molecular target: T5, HER2 peptide p609-622 (human); experiment: SPR Biacore, mAb on chip, peptide analyte, 1:1 fit
T5 peptide: SYMPIWKFPDEEGA

[7] = molecular target: T6, HER2 peptide p611-621 (human); experiment: SPR Biacore, mAb on chip, peptide analyte, 1:1 fit
T6 peptide: MPIWKFPDEEG

[8] = molecular target: T7, HER2 peptide p613-620 (human); experiment: SPR Biacore, mAb on chip, peptide analyte, 1:1 fit
T7 peptide: IWKFPDEE

[9] = molecular target: T8, HER2 peptide p611-619 (human); experiment: SPR Biacore, mAb on chip, peptide analyte, 1:1 fit
T8 peptide: MPIWKFPDE

[10] = molecular target: T9, HER2 peptide p612-618 (human); experiment: SPR Biacore, mAb on chip, peptide analyte, 1:1 fit
T9 construct: also called PIWKFPD
T9 peptide: PIWKFPD

[11] = molecular target: T10, HER2 peptide p610-620 (human); experiment: SPR Biacore, mAb on chip, peptide analyte, 1:1 fit
T10 peptide: YMPIWKFPDEE

[12] = molecular target: T11, HER2 peptide p611-618 (human); experiment: SPR Biacore, mAb on chip, peptide analyte, 1:1 fit
T11 peptide: MPIWKFPD

[13] = molecular target: T12, HER2 peptide p613-619 (human); experiment: SPR Biacore, mAb on chip, peptide analyte, 1:1 fit
T12 peptide: IWKFPDE

[14] = molecular target: T13, HER2 peptide p611-622 (human); experiment: SPR Biacore, mAb on chip, peptide analyte, 1:1 fit
T13 peptide: MPIWKFPDEEGA

[15] = molecular target: T14, HER2 peptide p614-619 (human); experiment: SPR Biacore, mAb on chip, peptide analyte, 1:1 fit
T14 peptide: WKFPDE

[16] = molecular target: T15, HER2 peptide p610-618 (human); experiment: SPR Biacore, mAb on chip, peptide analyte, 1:1 fit
T15 peptide: YMPIWKFPD

[17] = molecular target: T16, HER2 peptide p612-622 (human); experiment: SPR Biacore, mAb on chip, peptide analyte, 1:1 fit
T16 peptide: PIWKFPDEEGA

[18] = molecular target: T17, HER2 peptide p609-621 (human); experiment: SPR Biacore, mAb on chip, peptide analyte, 1:1 fit
T17 peptide: SYMPIWKFPDEEG

[19] = molecular target: T18, HER2 peptide p614-622 (human); experiment: SPR Biacore, mAb on chip, peptide analyte, 1:1 fit
T18 peptide: WKFPDEEGA

B1: H2Mab-214 antibody (antibody, V domains shown)
VH: QVTLKESGPGILQPSQTLSLTCSFSGFSLSTSGMGVSWIRQPSGKGLEWLAHIFWDDDKRYNPSLKSRLTISKDTSRNKVFLKITSVDTADTATYYCARRVVATDWYFDVWGAGTTVTVSS
VL: DIVLTQSPASLAVSLGQRATISCRASESVEYYGTTLMQWYQQKPGQPPKLLIYAASKVESGVPARFSGSGSGTDFSLNIHPVEEDDVAMYFCQQSRKVPLTFGAGTKLELKR
notes: Mouse monoclonal from a hybridoma (immunogen HER2ec made in LN229 cells); also called antibody of the present invention
Kd [1]: 229000 nM | Kd [2]: 127000 nM

B2: H2Mab-250 antibody (antibody, V domains shown)
VH: EVQLVESGGGLVQPGGSLKLSCAASGFTFSNYGMSWVRQTPDRRLELVATINNNGGGTYYPDSVKGRFTISRDNAKNTLYLQMSSLKSEDTAMYYCTSPGLLWDAWGAGTTVTVSS
VL: not shown
notes: as for B1
binding result [3]: binds | Kd [4]: 26600 nM | Kd [5]: 26400 nM | Kd [6]: 1.57 nM | koff [6]: 0.00033 s⁻¹ | kon [6]: 210000 M⁻¹ s⁻¹ | Kd [7]: 1.89 nM | koff [7]: 0.000411 s⁻¹ | kon [7]: 218000 M⁻¹ s⁻¹ | Kd [8]: 13.1 nM | koff [8]: 0.00371 s⁻¹ | kon [8]: 283000 M⁻¹ s⁻¹ | Kd [9]: 2.02 nM | koff [9]: 0.000487 s⁻¹ | kon [9]: 240000 M⁻¹ s⁻¹ | Kd [10]: 1.92 nM | koff [10]: 0.00057 s⁻¹ | kon [10]: 296000 M⁻¹ s⁻¹ | Kd [11]: 1.32 nM | koff [11]: 0.000342 s⁻¹ | kon [11]: 260000 M⁻¹ s⁻¹ | Kd [12]: 0.869 nM | koff [12]: 0.00031 s⁻¹ | kon [12]: 356000 M⁻¹ s⁻¹ | Kd [13]: 10.3 nM | koff [13]: 0.0041 s⁻¹ | kon [13]: 397000 M⁻¹ s⁻¹ | Kd [14]: 2.02 nM | koff [14]: 0.000378 s⁻¹ | kon [14]: 187000 M⁻¹ s⁻¹ | Kd [15]: 1380 nM | koff [15]: 0.00118 s⁻¹ | kon [15]: 854 M⁻¹ s⁻¹ | Kd [16]: 0.599 nM | koff [16]: 0.000225 s⁻¹ | kon [16]: 376000 M⁻¹ s⁻¹ | Kd [17]: 3.74 nM | koff [17]: 0.000724 s⁻¹ | kon [17]: 194000 M⁻¹ s⁻¹ | Kd [18]: 1.17 nM | koff [18]: 0.000289 s⁻¹ | kon [18]: 247000 M⁻¹ s⁻¹ | Kd [19]: 2910 nM | koff [19]: 0.00145 s⁻¹ | kon [19]: 498 M⁻¹ s⁻¹
